Reference: PMC7094341

Legend:
[1] = molecular target: SARS-CoV papain-like protease (PLpro), trypsin-trimmed product of P-PLpro(C2)-His6 (SARS-CoV)
[2] = molecular target: SARS-CoV papain-like protease (PLpro), trypsin-trimmed product of P-PLpro(C2)-His6 (SARS-CoV); remark: listed apart in the source

Chain of ISG15(C)-AMC (P05161 82-157): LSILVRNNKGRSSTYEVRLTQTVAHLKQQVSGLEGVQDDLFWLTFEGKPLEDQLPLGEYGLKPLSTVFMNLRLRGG

Substance	kcat/KM of hydrolysis of ISG15(C)-AMC by PLpro (fluorescence, pH 7.8, 25 °C) [1]	kcat/KM of hydrolysis of Ub-AMC by PLpro (fluorescence, pH 7.8, 25 °C) [2]
ISG15(C)-AMC (from UniProt P05161 82-157) (domain or fragment)	94000 M⁻¹ s⁻¹	
Ub-7-amino-4-methylcoumarin		19800 M⁻¹ s⁻¹
